Data published in PMC5491494.

Target: hnRNPA1, endogenous, P09651
Experiment: cross-linking; DSG cross-linking, sample not named in the text (Supplementary Fig. 2a); nucleo-cytoplasmic fractionation; immunoblot, 4–12% denaturing polyacrylamide gels
Details: remark: other sources report otherwise

B1: hnRNPA1, endogenous, P09651 1-372 (natural protein)
chain: MSKSESPKEPEQLRKLFIGGLSFETTDESLRSHFEQWGTLTDCVVMRDPNTKRSRGFGFVTYATVEEVDAAMNARPHKVDGRVVEPKRAVSREDSQRPGAHLTVKKIFVGGIKEDTEEHHLRDYFEQYGKIEVIEIMTDRGSGKKRGFAFVTFDDHDSVDKIVIQKYHTVNGHNCEVRKALSKQEMASASSSQRGRSGSGNFGGGRGGGFGGNDNFGRGGNFSGRGGFGGSRGGGGYGGSGDGYNGFGNDGGYGGGGPGYSGGSRGYGSGGQGYGNQGSGYGGSGSYDSYNNGGGGGFGGGSGSNFGGGGSYNDFGNYNNQSSNFGPMKGGNFGGRSSGPYGGGGQYFAKPRNQGGYGGSSSSSSYGSGRRF
- stoichiometry N: 2
